From US12084521B2, “TLR9 inhibitors to suppress inflammatory response to pathogens” (University Of Maryland, Baltimore, priority 2018, dated 2024)
No end group written: not given here. Cy3 = Cy3 fluorescent dye label

What was measured:
TLR2 TIR-Cer = target: T1, TLR2 TIR-Cer (Homo sapiens, UniProt O60603); experiment: FLIM/FRET control construct in HeLa cells; format: binding; details: peptide 40 μM
T1 construct: Cer-fused TLR2 and TLR4 TIR domains; expressed in transfected cells; host or cells: HeLa
Method: (§1) Three million HeLa cells were transfected with 10 μg of MyD88-Cer, TIRAP-Cer, TRAM-Cer, TLR2-Cer, TLR4 TIR-Cer, or TLR9 TIR-Cer expression vectors using a Lipofectamine™ 3000 kit from Invitrogen™ per manufacturer recommendations. Twenty four hours later, the transfected cells were trypsinized and reseeded into a 50-well gasket (Grace Bio-Labs™) mounted on a microscope slide at the density 8000 cells/well. The next day, cells were treated with Cy3-9R34-ΔN or Cy3-9R11 for 1 hour and fixed on the slides with a 4% paraformaldehyde solution.
(§2) Fluorescence lifetime images were acquired using the Alba V FLIM™ system (ISS™ Inc.). The excitation was from the laser diode 443 nm coupled with scanning module (ISS™) through multiband dichroic filter 443/532/635 nm (Semrock™) to Olympus™ IX71S microscope with objective 20×0.45 NA (UPlan™ Olympus™). Emission was observed through bandpass filter […] (Chroma Technology™) and detected by a photomultiplier H7422-40 (Hamamatsu™). Measurements were performed using frequency domain (FD) and time domain (TD) modalities of the FLIM system. FD FLIM data were acquired using ISS™ A320 FastFLIM™ electronics with n harmonics of 20 MHz laser repetition frequency (n=1, 2, 3, 4, 5, 6). FastFLIM™ was calibrated using fluorescein in buffer pH 8.0 as a standard with a single lifetime of 4.0 ns. TD FLIM images were acquired using time-correlated single photon counting TCSPC™ Model SPC-830 (Becker & Hick™).
(§3) Images (256×256 pixels) were acquired with resolution varied in the range ˜0.4-0.7 μm/pixel, using scan speed 1 ms/pixel. To avoid pixel intensity saturation in bright cells and to improve the signal from dim cells, two to five overlapping scans were used for acquisition of FLIM images. Image sizes varied from 100×100 to 180×180 μm to accommodate multiple cells. FLIM data were analyzed with VistaVision™ Suite software (Vista™ v.212 from ISST). Fluorescence lifetime was determined using single- and bi-exponential intensity decay models. Average lifetime images were generated based on pixel-by-pixel analysis using the combined signal of two neighboring pixels in all directions (bin 2=25 pixels). The binning was used to improve the signal for analysis. The average lifetimes were calculated from fitted parameters, decay times τi and amplitudes αi, τa=Σαiτi. The bi-exponential fitting procedure was performed with one lifetime component fixed at 3.1 nsec, which was found common for most images. To calculate the effective FRET efficiency (E), average lifetimes of the donor only images (τD) and donor-acceptor images (τDA) were used, E=1−τDA/τD.
(§4) TLR9, MyD88, and TIRAP were selected as potential primary binding partners for Cy3-9R34-ΔN and Cy3-9R11. Cer-fused TLR2 and TLR4 TIR domains, and Cer not fused to a TIR, were used as controls. […] Therefore, the TIRAP-Cer with Cy3-2R9 was used as a positive binding control. Binding of Cy3-labeled CPDPs to Cerulean- (Cer-) labeled TIR domains was tested as follows. Fluorescence Lifetime IMages (FLIM) were made of HeLa cells expressing Cer not fused with a TIR domain (upper row) or fused with TLR9 TIR or TIRAP TIR (middle and bottom rows) and treated with a Cy3-labeled decoy peptide for 1 hour.

TRAM-Cer = target: T2, TRAM-Cer (Homo sapiens, UniProt Q86XR7); experiment: FLIM/FRET control construct in HeLa cells; format: binding; details: peptide 40 μM
T2 construct: expressed in transfected cells; host or cells: HeLa
Method: as §1, §2, §3, §4

[1] = test system: Cer not fused to a TIR domain; experiment: FLIM/FRET control construct in HeLa cells; format: binding; details: peptide 40 μM
Method: as §1, §2, §3, §4

TLR4 TIR-Cer = experiment: FLIM/FRET control construct in HeLa cells; format: binding; details: peptide 40 μM
Method: as §1, §2, §3, §4

TIRAP TIR = target: T3, TIRAP TIR (Homo sapiens, UniProt P58753); experiment: FLIM/FRET binding of Cy3-labeled peptides to Cer-fused TIR in HeLa cells
T3 construct: fused with TLR9 TIR or TIRAP TIR; expressed in transfected cells; host or cells: HeLa
Method: as §1, §2, §3
(§5) To identify potential binding partners of inhibitory peptides a FRET approach coupled with Fluorescence Lifetime Imaging Microscopy (FLIM) was used. HeLa cells were transiently transfected with an expression vector that encodes a TIR domain fused with Cerulean fluorescent protein (Cer). Cells were treated with various concentrations of a Cy3-labeled inhibitory peptide 48 hours after transfection. Cy3 is a suitable FRET acceptor for Cer fluorescence. A direct molecular interaction of a Cy3-labeled peptide with Cer-fused TIR domain should quench Cer fluorescence, leading to a decreased fluorescence lifetime.
as §4
(§6) A progressive shift of average fluorescence lifetime towards lower values observed with increasing peptide concentrations indicates the binding between donor and acceptor moieties. […]

TLR9 TIR = target: T4, TLR9 TIR (Homo sapiens, UniProt Q9NR96); experiment: as above
T4 construct: expressed in transfected cells; host or cells: HeLa
T4 sequence (Q9NR96 868-1013 limits assumed): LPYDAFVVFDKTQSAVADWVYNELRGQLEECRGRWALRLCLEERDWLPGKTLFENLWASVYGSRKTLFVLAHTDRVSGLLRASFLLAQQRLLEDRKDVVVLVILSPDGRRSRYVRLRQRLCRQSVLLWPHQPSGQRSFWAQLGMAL
Method: as §1, §2, §3, §5, §4, §6

MyD88 TIR = target: T5, MyD88 TIR (Homo sapiens, UniProt Q99836); experiment: as above
T5 construct: expressed in transfected cells; host or cells: HeLa
Method: as §1, §2, §3, §5, §4, §6

T3 sequence (P58753 84-213 limits assumed): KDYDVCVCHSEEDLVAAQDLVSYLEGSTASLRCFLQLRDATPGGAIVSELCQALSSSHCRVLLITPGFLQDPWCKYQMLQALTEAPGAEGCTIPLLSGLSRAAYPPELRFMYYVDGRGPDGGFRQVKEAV
T5 sequence (Q99836 159-293 limits assumed): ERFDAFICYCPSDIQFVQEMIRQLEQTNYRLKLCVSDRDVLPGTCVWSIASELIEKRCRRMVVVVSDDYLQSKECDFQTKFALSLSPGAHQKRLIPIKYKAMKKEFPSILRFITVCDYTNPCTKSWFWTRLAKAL
T2 sequence (Q86XR7 whole entry): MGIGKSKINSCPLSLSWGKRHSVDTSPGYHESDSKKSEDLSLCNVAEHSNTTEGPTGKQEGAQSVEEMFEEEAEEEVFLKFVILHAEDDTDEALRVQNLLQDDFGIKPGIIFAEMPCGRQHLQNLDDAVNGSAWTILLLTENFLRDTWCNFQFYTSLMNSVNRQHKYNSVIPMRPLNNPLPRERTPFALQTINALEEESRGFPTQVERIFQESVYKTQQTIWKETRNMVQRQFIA
T1 sequence (O60603 639-782 limits assumed): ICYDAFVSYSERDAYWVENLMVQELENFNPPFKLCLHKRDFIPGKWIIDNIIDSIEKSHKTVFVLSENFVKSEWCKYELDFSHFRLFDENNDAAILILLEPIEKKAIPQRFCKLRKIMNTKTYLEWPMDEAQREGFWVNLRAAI

fluorescence lifetime of control TLR2 TIR-Cer (TLR2 TIR-Cer): slightly affected
fluorescence lifetime of control TRAM-Cer (TRAM-Cer): slightly affected
effect on TIRAP-Cer fluorescence at the lowest peptide concentration (TIRAP TIR; 2.5 μM): absence of the effect
quenching of TIRAP-Cer fluorescence (TIRAP TIR; HeLa cells, Cy3-peptide 2.5-40 μM, 1 hour): notably quenched
FRET efficiency, TLR9 TIR-Cer (TLR9 TIR; HeLa cells, Cy3-peptide 2.5-40 μM, 1 hour, dose-dependent): 9-23%
fluorescence lifetime of TLR9 TIR-Cer construct (TLR9 TIR; minimal peptide concentration 2.5 μM): decreased
quenching of MyD88 TIR-Cer (MyD88 TIR; peptide 40 μM, considerably less than on TLR9 and TIRAP TIR-Cer): notable
average fluorescence lifetime of Cer-labeled MyD88 TIR (MyD88 TIR; peptide 2.5 and 10 μM): not affected
Substance: Cy3-9R34-ΔN: Cy3-labeled 9R34-ΔN peptide, Cy3 label placed at the peptide N-terminus (Cy3-RQIKIWFQNRRMKWKKALRLCLEERD)
fluorescence lifetime of Cer not fused to a TIR domain (unspecific quenching) [1]: slightly affected
fluorescence lifetime of control TLR4 TIR-Cer (TLR4 TIR-Cer): slightly affected
